Test results published in PMC3237451, “Missense Mutation in the Second RNA Binding Domain Reveals a Role for Prkra (PACT/RAX) during Skull Development”.

Target: T1, His-RAX (S130P) (Mus musculus (cDNA from L929 cells), UniProt Q9WTX2 1-313, S130P)
T1 sequence: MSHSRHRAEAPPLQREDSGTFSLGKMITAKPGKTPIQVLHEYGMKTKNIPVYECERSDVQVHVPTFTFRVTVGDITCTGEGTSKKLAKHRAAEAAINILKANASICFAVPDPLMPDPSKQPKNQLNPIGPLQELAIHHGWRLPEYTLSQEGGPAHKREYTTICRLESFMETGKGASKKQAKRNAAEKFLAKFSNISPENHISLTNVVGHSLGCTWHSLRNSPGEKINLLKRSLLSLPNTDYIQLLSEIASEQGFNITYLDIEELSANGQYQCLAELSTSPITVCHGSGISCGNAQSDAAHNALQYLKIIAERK
Assay: EMSA; 20 mM Tris pH 7.5, 50 mM KCl, 2 mM MgCl2, 2 mM MnCl2, 5% glycerol; EMSA 15 min at room temperature, 5% acrylamide gel in 0.25x TBE run cold
Conditions: protein: recombinant; blunt

B1: 30-bp dsRNA probe (dsRNA)
RNA 1: GGGAACAAAAGCUGGGUACCGGGCCCCCCC
RNA 2: GGGGGGGCCCGGUACCCAGCUUUUGUUCCC
  binding result: no binding
